Measurements from patent US20020102617.

What was measured:
[1] = tested on: Elk1
[2] = tested on: Kemptide (a peptide substrate for PKA)
[3] = tested on: protein phosphatase inhibitor 2 (I-2)

Row | Substance | phosphorylation (33P-γ-ATP, autoradiography emulsion on slide) [1] | phosphorylation (33P-γ-ATP, autoradiography emulsion on slide) [2] | phosphorylation (33P-γ-ATP, autoradiography emulsion on slide) [3]
1 | catalytic subunit of cAMP-dependent protein kinase (PKA) | only the substrate for PKA (Kemptide) was phosphorylated (Elk1 not phosphorylated) | only the substrate for PKA (Kemptide) was phosphorylated | only the substrate for PKA (Kemptide) was phosphorylated (I-2 not phosphorylated)
2 | casein kinase II (CKII) | only the specific substrates of these kinases (I-2 and Elk1, respectively) were phosphorylated (Elk1 not phosphorylated by CKII) | only the specific substrates of these kinases (I-2 and Elk1, respectively) were phosphorylated (Kemptide not phosphorylated by CKII) | only the specific substrates of these kinases (I-2 and Elk1, respectively) were phosphorylated
3 | p42 MAP kinase (Erk2) | only the specific substrates of these kinases (I-2 and Elk1, respectively) were phosphorylated | only the specific substrates of these kinases (I-2 and Elk1, respectively) were phosphorylated (Kemptide not phosphorylated by Erk2) | only the specific substrates of these kinases (I-2 and Elk1, respectively) were phosphorylated (I-2 not phosphorylated by Erk2)
